Results from the domain aggregation screens of Martell et al. (2025).

Assay: soluble fraction after stress (log2 fold change); higher = more stays soluble; pooled small domains, quantitative proteomics
Conditions: stress: pH 4
Summary of the method: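 Pooled custom libraries of small protein domains were stressed at pH 4 and then measured by high-throughput quantitative proteomics. The fold change in the amount of each domain that stays soluble after the acid stress serves as a measure of aggregation propensity. Fold changes are given on a log2 scale, and higher values mean more of the domain stayed soluble.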

Sequence	soluble fraction (log2)
HMPASVEYIRLAAEQMTGQQVTIIEQPGNYAFILRIHLNDIYSLDLAALRARIDELKPAHLTYTVEQYD	-1.85
HMPAVVEFDVKPRGEVLVDGIWYGRIPELREVELRPGRHHLRVQNAGHPSLDLVVTLEPGERMTVTHTFA	-0.33
HMLIVLKPNVSQEEIDHIVDKIRSLSLEPHVSTGVQRTIITVIGDEDVIREQPLEALAGVESVKSILKP	-0.144
HMAIEMSTITKRVTSTGEIRYRALLQIRREDVNYTESRTFSKKSLAEAWLKKREVELEANPELLHQ	≥ 0.43
HMDRYAVRAEELAAALAQYHRHVGVYPENLEDLIAPTGPRGYRGPYLSELPTNPSTSKPDWGYDPATGRVS	0.159
HMGYGEQEQEAQKYLALHALMSQDPTLAKMYQAPNQYKLMSHVMEQNGIKNVNDYLTDPQQLP	-0.161
HMTANPHKPEPLQIDTSDITPGVTVIHKAFGNGTVVSVDNNRILIDFDGIEKKFPFPGAFLYGFLQK	-1.17
HMDQVYYDLKSLIELLPADQMEVLKMRYFEELSFKKIAQKIDVSINTALGRMRYALINLRALSKKHHID	-1.02
HMKRGDAYASEMIARLKEAHLIVMEGTLYPLLTRLKNDGLLSYRWEESTQGPPRKYYSITPVG	-0.081
HMNAESLIGDRAVVTVAIERNKRGRVDVTGQDWAATTRDGEEIKVGQEVLVVGISGVALIVEER	0.164
HMNIDEIFLTKNEIYFSFEYQKKSQLDRYSKIISLDHRIDKNTAYAYANKKQFLNFINLNIDYKIIDNSF	-1
HMVTKTTYAYERLKREIMDGTLGQGEKLVVNAISQRYQVSPMPIREALLKLEQEGLVQSAPHRGAWVHK	0.0193
HMTTEPYILTRMPDGSIKAEPNLNYKGPEQKPGSNIQVKGADGRIYLVPIDGQGKPGKPQLVD	0.127
HMGMMTLGQRIAQYRKAMGISQEELGGRLGVSRQAVSKWETDAAAPDMENLLALAREFGVSVAELTETP	-0.11
HMPAAPVFLQKDLLDAGLIGQADSAARREKLGKILGIGYGNGKVMLQRLNSFGIERDAFEQAVQE	-0.195
HMNNLKTKELSKIGYTNDKARSLVISIIPKHFKYHSKSEIIELLTNIKNKPEDYVSDEILGKIAETFMEKI	-1.19
HMPFGIYGGKVSSLDDLKDKAAVLVPNDVSNEARALLLLEAQGLIKLKEGVGLEATRNDIVEN	-0.0596
HMNIDVAAEKQQLGPNADQIVKGTVTWMQGLVAKGIWSETDFEEGKIFTATADGINAINKIRRYYGEQT	-0.439
HMNLAPLLTEYVQINFRRASEMKTYLEQANLISERGFLLADDQTNILMVRETGASIEEIRRTLNRF	-1.61
HMVRGNLAEELLKLREEEGISFQEAGARSGIARSTISQVVNQGLRLKPNQEESLWRVIEEVRGVKER	-0.0263
HMSGHIPGIKIKGVIFFDKGSSSNHIIATTENNSNLKLRVGETVQGAVLKSIHPNHVIFFHHNQLIEVGIG	0.0374
HMIYYTEEELVKRYIDFSNYLGKKEGASDVDFKKYAVEFGIPSRDHYNRKFITLFNLKIKAGYKPIRH	-1.13
HMPLVIIRGIEGVFSSEEKAEAIRKVTDALVSVKGENVRGFAWVVFEEVKSGDWGIGGESITAEKVIMSL	-0.39
HMVSTDPVHLFNLGTANRRAGRASEAITSYRKFMEAAPQHPQVPEARAYIHDMEVLLQERQKSEQAASQLS	-0.0261
HMALQDKYKELTDAATAAGVTDLQVREQDNVLYIDGTAPSGAVKDQLWAIYDKIDPNFVSGDLVLNVNVD	-0.49

Sequence	soluble fraction (log2)
HMRAGHDFEALKHIESSLDKHLTDEGIKIKSEKRGAIVARWYQSHVEGREVTDDDVHTWIELFF	-2.2
HMDRWSLLTLTTLAGGTLRFTELKRAIGDISQRMLAQTLRTLEREGYVSRKVYATIPPKVEYRLTALGQSL	≥ 0.43
HMVSVEINTVERDETFRKMFTSGWKPENRIQALAVEQAKKNGLGRMSEVAGLASFRGIWKQATEQVALEA	-0.0443
HMRTDQYHYLAWKQVADELGIPFDEQVNERLRGVSRMASFDIILERYDGTMSDEEKIHWTDKKNEIYKSM	-1.68
HMKTKMTPELTTVIEAQIQKEWSPEQISGWLKKTHPVSVSHQRIYQHIQADRQQGGTLHQHLRQAK	-0.2
HMSSSYTEMQLERFKELLNKETLLSSEKNELKNLISDFDKISEIVSPLVVGAYLQLKNEHIETINSLG	-0.846
HMKQNNYATKKELNFFVSRLISLLSYRDFFNPIEKKESMINNIEAIFTRSSLTSQELRTLHGIISNLVE	-1.27
HMGWEDLVGKTAVVKVALAPVGMVFFRGEFWSAISETGRIEPGEEVTISRIDGLKLYVTKKRIM	≥ 0.43
HMTISAQAITPRLEVIKNFVLMEEWDAAQTQLEKLRSFTEIWSLDPLFSAMKKKDGQKISDWITGFIKDNM	-1.69
HMYAPKIETIQVPQDKIREVIGTGGKVIREIVETTGAKIDIGDTGLIKVASSDGEAIRAALDWINSIVAE	-0.758
HMVEVPEQLRDLLERSIEDLAELSVRSRNSLQKENIQTLGDLVQRTEEEMLGIENFGKKSLTEIAAFL	-0.92
HMGWVMLVIMSRGASEAQINAVVEKIRAAGLTEHLSKGIERTIIGAIGEERKLEPEVFELLPGVEQALHIV	-0.713
HMGSLRSALDGIPGIGEQYQKRLLAQFGSVKAMRSASVEDFEAVRGIGRAKAQALYDALHAG	0.13
HMDENDPYEILEIDRLASDDQVKAKYRALIRENHPDVLMAKGVPQEFIDLANRKMAVINAAYDRIEKEREF	-0.616
HMNARSTSYSDFIARVDKDEVASVRLDGETVTYQAADGTTYTTVKPESDPIAERLIAKGIEVNVVRQ	-0.519
HMEMKVIPFNQMTRDQFDQLDRFLGRLAAAQAMGSLRLTKAQQNYFLNQVKQLDLYRKRILN	0.0144
HMESILDDFPGLGEKRKKALLEHFGSISKIKAATVGQLREVDGIGFETAAALREFLDANFPA	0.0668
HMGIVAGGTQSIATLRAIDTTDAQLYPDKILINVEDAGLYRLDRQSTATDDGNQVIKPTVGVGRWLKMTS	0.0998
HMLMLTPGQIAQTLDVSTATVRRWSARYARHLSPNTPGKKRSYTVDDLAVLTRVRDLSATGTPLAQIDQAL	0.151
HMGIIVDMSKIKQMLQLSEAGHSNRKIALELGINKETVNNYMQLIRNGRLDIRQLLKMDDPELERRFHA	0.23
HMLGWEDVIQFEEVKGYGQHIWRDGNHLYYVTEEGGIAPQRVVYELPNELFALLESGERTQLEILSKLQ	-2.35
HMNSGFEVFREVVNQGSFIGAANALGISAPAVSKQIKLLENRLGLLLLYRTTRNVTLTDIGKQLFDTLDNS	-1.37
HMKTERTVRVQDQHLHYTLEEKPIKNVNLRIRPDGSVYVSAPFGTSRTLIDDFVASKSKQILAIQQAQSAM	0.22
HMLDGFEVGMTVMRKPGTETGFTGWPPFADKDEFPVIERIDTSDSTLLLRFNDTSWWINASLVEPSDV	-0.729
HMNQIDDADRKRVVDEVAGQFSSMSLTEMRSDREKLLSRIIPQVQTTLNRLGLQTIDVEGIAREVIARVG	-0.288

Sequence	soluble fraction (log2)
HMETLEDHRKKTRQQLFDALSHLLQTSTFESLTMAKIAEEAGVGRTAVYNHFQDKEALLLAFITYETGQ	-0.815
HMGRMTRKDRALATDLYGRIVGNVDDFHEGRIDYETFSERQRGLWTTLDAAGPEVKRAVLADIRERL	0.23
HMNYYYKDNQYWYVGFRYDERLVKEIKRFVGAGYNPENKEWYIPFTLPTVAPLQKWLHDNGFVEGMNYYP	-1.31
HMKEQLITVYVSGAVARPGLYELPAGIRAQEAVEAAGGFTEAANHEKVNLAKKLKDGSQVNVPALK	-0.107
HMTDSQLVEAENHVALRQAMAHLGPRERELIGLYYFEEQSQTQIAARFGVSQMQVSRWLTSAVGRIRGQMA	0.131
HMSLPALALRQADSLAFKQVIYHDRVVPFNTLARDFVLKLTGKPSYGGMTPEQVVGGWLLRPEVWQNEPM	0.00403
HMEGLDDKTKIILFAGDKKEQEYSLADLKSKLNITENLTESELIKLLEKQGYVLDVNANNEFMFKKD	0.22
HMKMATITKRTNPSGAVVYRAQVRVKREGYPPYSESRTFSKKSLATEWAKRREFEIETNPDLLFN	0.0738
HMLDQGTQSRYQIMDGVRALITGDWSSHGAGLVRELSQEVARTSGLTATSERTFFVPFSALS	-0.111
HMIEYYDDEELDVFKGRQSDNYTNKEIEQFAEVLHTMRQDEVKGWNRSLILRSINLPDSLKDEVIMLI	-2.53
HMGKHYLLKDDNGTITIYKILEDGTQEVYEKTEISTTYLPQTDNIGIKQGIRVNGDEALNELIENF	-0.821
HMEYKTGIINTNKVRVRNAADADATVIFAINKDIKVKILAEENGFYKIGVSVKNRGNGEDLIGFVKKELIT	0.3
HMQYPSSLDSRAKQSLYDNLERNEILALALDNVIQSNKLDGWRDGGIKERKLRLAINNLLKNDEHTDNIME	-0.284
HMLAFDKDDSGAVAEIILVLGRYWMDFSHKKYPAAEGVALRHKGLSHIFTVLRPYLSTPASELIGERLRR	0.22
HMARSVAEFVERGRSGGSLERPKLQRMLEYIQDRPVDFVIVHKIDRLARNRADDAAITKTIRGAGAYLVST	-0.103
HMTDLQNDIQAFNLKKMSYQHETKKLEEKRNPEKLEKLEQDIQALYLRIMENPNMRAFDSAKQALYLQIM	-1.55
HMQIAEAESLGQRLLQQSINNIVGRDEAITEERLNRVLSQYSLTGRDELMAQIGLGNRNSSLVAKAMYDI	-0.35
HMSESLLTAAGFKTIAATTPEQKRHLEWLHPDQVTAVQLTGQHYYVYPDVAKSQLFVGTPKEYQAYLALRT	0.00516
HMEELLVAVKADGSIWADGRPITPDGLASFIDSKPADAVLNLAVDKKAPFAAFVKVVDVAKEKKSGRFVIR	-0.141
HMSLHSITIPQEFIGAVIGPGGKVIQEIQKQTGTTITITEKDNKGYVDIFGEDKGALDSALARIKEIVAIP	-0.277
HMPVYEEEVPAALDGQRLDRVVAMVTGLSRSEVGALLAAGAVTVDGTTPAKGSVRLAAGSIVSVTVS	-0.366
HMRTKEGLASQLEKIPGIGPVKRKALLKKFGSIDAIAAASKEELMLTDGITSSLADAIRDYF	0.391
HMDKATMRWEQIEKFLETHPYIMNADVRALFNVSAATANRILATLTTEGKLVKYREGGHWAYKY	-0.217
HMRNQIRAVITPVPNQERYTVEMTIDDDAGNLLTLQMAAPDRQQAAEFAQRFQKHPEALYHAVLSVLL	-0.191
HMRQSIHTALQLLTPREEEVLNLLVSGKSNKQVAEHFSLSSKTIERHRSSVMRKLDASSFAQLVRIAALR	-0.404
